Test results as given in US20240409650A1 (ARMAGEN, published 2024).

Tests used:
[1] = molecular target: T1, HIR extracellular domain (ECD) (human, UniProt P06213 28-956, limits assumed); experiment: ELISA, HIR ECD plated on Nunc-Maxisorb wells, biotinylated goat anti-human IgG detection; ED50 by inspection
T1 construct: extracellular domain; also called HIR ECD; IR ECD

[2] = molecular target: T1, HIR extracellular domain (ECD); experiment: ELISA on plated HIR ECD; ED50 normalised with a MW of 375 kDa
[3] = molecular target: T1, HIR extracellular domain (ECD); experiment: ELISA on HIR ECD; ED50 normalised with a MW of 150 kDa
[4] = molecular target: T1, HIR extracellular domain (ECD); experiment: ELISA on plated HIR ECD; ED50 normalised with a MW of 150 kDa
[5] = molecular target: T1, HIR extracellular domain (ECD); experiment: ELISA on lectin affinity purified HIR ECD; printed as ED50, non-linear regression
[6] = molecular target: T1, HIR extracellular domain (ECD); experiment: ELISA on HIR ECD (FIG. 17); the same 166 ng/mL ED50 normalised with a MW of 375 kDa
[7] = molecular target: T1, HIR extracellular domain (ECD); experiment: ELISA on HIR ECD; ED50 normalised with a MW of 350 kDa

| EC50 [1] [µg/mL] | EC50 [2] [nM] | EC50 [3] [nM] | EC50 [4] [nM] | EC50 [5] [µg/mL] | EC50 [6] [nM] | EC50 [7] [nM] | Binder |
| --- | --- | --- | --- | --- | --- | --- | --- |
| 0.35 | 0.93 |  |  |  |  |  | HIRMAb-L-NAGLU fusion protein (23 amino acid L linker) (antibody, human IgG1, human IgG3, kappa, COS-derived (transient expression), purified on protein A. Hetero-tetramer; also called HIR Ab-L-NAGLU fusion protein; IgG-L-NAGLU) heavy: not shown light: DIQMTQSPSSLSASLGERVSLTCRASQDIGGNLYWLQQGPDGTIKRLIYATSSLDSGVPKRFSGSRSGSDYSLTISSLESEDFVDYYCLQYSSSPWTFGGGTKLEIKRTVAAPSVFIFPPSDEQLKSGTASVVCLLNNFYPREAKVQWKVDNALQSGNSQESVTEQDSKDSTYSLSSTLTLSKADYEKHKVYACEVTHQGLSSPVTKSFNRGEC |
| 0.065 |  | 0.29 | 0.43 | 0.043 |  |  | chimeric HIRMAb (chimeric monoclonal antibody against the human insulin receptor) (antibody, human IgG1, kappa, also called HIR Ab; HIRMAb alone) heavy: not shown light: DIQMTQSPSSLSASLGERVSLTCRASQDIGGNLYWLQQGPDGTIKRLIYATSSLDSGVPKRFSGSRSGSDYSLTISSLESEDFVDYYCLQYSSSPWTFGGGTKLEIKRTVAAPSVFIFPPSDEQLKSGTASVVCLLNNFYPREAKVQWKVDNALQSGNSQESVTEQDSKDSTYSLSSTLTLSKADYEKHKVYACEVTHQGLSSPVTKSFNRGEC |
|  |  |  |  | 0.166 | 0.44 | 0.47 | HIRMAb-LL-NAGLU fusion protein (31 amino acid LL linker) (antibody, human IgG1, human IgG3, kappa, also called HIR Ab HC-LL-NAGLU; printed in places as HIRMAb-NAGLU or HIR Ab-NAGLU fusion protein) heavy: not shown light: DIQMTQSPSSLSASLGERVSLTCRASQDIGGNLYWLQQGPDGTIKRLIYATSSLDSGVPKRFSGSRSGSDYSLTISSLESEDFVDYYCLQYSSSPWTFGGGTKLEIKRTVAAPSVFIFPPSDEQLKSGTASVVCLLNNFYPREAKVQWKVDNALQSGNSQESVTEQDSKDSTYSLSSTLTLSKADYEKHKVYACEVTHQGLSSPVTKSFNRGEC |
